# According to patent US20240066131A1 (Protagonist Therapeutics, Inc., priority 2020, published 2024):
# Starred links: 1 amine or outer side, 2 acyl side, 3 side chain; linkers in the order of their positions; H or OH if unused. Non-standard residues stand in square brackets, D forms with d. Groups on a side chain read outwards from the residue. Primed or numbered codes have the meaning given here. *: point of attachment. Tet2 = (S)-2-amino-4-(1H-tetrazol-5-yl)butanoic acid, O=C([C@H](CCc1nn[nH]n1)N[*:1])[*:2]; ButanoicP = (R)-4-(pyrrolidin-2-yl)butanoic acid, O=C(CCC[C@@H]1CCCN1[*:1])[*:2]; Ala(1H-tetrazol-5-yl) = N[C@@H](Cc1nnn[nH]1)C(=O)O; Dip = N[C@H](C(=O)O)C(c1ccccc1)c1ccccc1; His(τ-Me) = Cn1cnc(C[C@H](N)C(=O)O)c1; Stearoyl = CCCCCCCCCCCCCCCCCC(=O)*; Palmitoyl = CCCCCCCCCCCCCCCC(=O)*; Myristoyl = CCCCCCCCCCCCCC(=O)*; β3hF = N[C@H](CC(=O)O)Cc1ccccc1; Isovaleryl = CC(C)CC(=O)*; hIle′ = not defined here; AEEA = NCCOCCOCC(=O)O; Ahx = NCCCCCC(=O)O; βAla = NCCC(=O)O
# T1: human ferroportin (SLC40A1) fused in frame with GFP, stably expressed in HEK293 cells (human, UniProt Q9NP59 1-571)
# T1 sequence (looked up): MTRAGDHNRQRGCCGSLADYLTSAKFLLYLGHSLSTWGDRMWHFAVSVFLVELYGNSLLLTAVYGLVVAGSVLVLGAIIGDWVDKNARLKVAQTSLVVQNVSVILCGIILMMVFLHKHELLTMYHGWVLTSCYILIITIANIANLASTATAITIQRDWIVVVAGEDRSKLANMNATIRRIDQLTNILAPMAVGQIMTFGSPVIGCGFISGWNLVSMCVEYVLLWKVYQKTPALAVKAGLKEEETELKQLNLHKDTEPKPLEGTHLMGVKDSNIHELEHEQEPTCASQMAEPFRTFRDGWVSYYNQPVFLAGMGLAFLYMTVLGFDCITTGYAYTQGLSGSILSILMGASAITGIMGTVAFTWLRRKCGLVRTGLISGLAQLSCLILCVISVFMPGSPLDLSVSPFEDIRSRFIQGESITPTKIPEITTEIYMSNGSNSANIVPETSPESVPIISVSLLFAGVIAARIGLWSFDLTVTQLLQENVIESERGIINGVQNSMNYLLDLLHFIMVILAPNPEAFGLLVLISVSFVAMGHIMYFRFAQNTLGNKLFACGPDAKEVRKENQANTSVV
# B1: Isovaleric Acid-E-T-H-[Dpa]-P-A-I-[Lys(1PEG2_1PEG2_Ahx_Palm)]-[bhPhe]-NH2 (peptide)
# peptide: Isovaleryl-ETH[Dip]PAIK([AEEA-AEEA-Ahx-Palmitoyl])[β3hF]-NH2
# SMILES: CCCCCCCCCCCCCCCC(=O)NCCCCCC(=O)NCCOCCOCC(=O)NCCOCCOCC(=O)NCCCC[C@H](NC(=O)[C@@H](NC(=O)[C@H](C)NC(=O)[C@@H]1CCCN1C(=O)[C@@H](NC(=O)[C@H](Cc1c[nH]cn1)NC(=O)[C@@H](NC(=O)[C@H](CCC(=O)O)NC(=O)CC(C)C)[C@@H](C)O)C(c1ccccc1)c1ccccc1)[C@@H](C)CC)C(=O)N[C@H](CC(N)=O)Cc1ccccc1
# B2: Isovaleric Acid-[Tet2]-T-H-[Dpa]-P-I-I-[Lys(Ahx_Palm)]-[bhPhe]-NH2 (peptide)
# peptide: Isovaleryl-[Tet2]TH[Dip]PIIK([Ahx-Palmitoyl])[β3hF]-NH2
# SMILES: CCCCCCCCCCCCCCCC(=O)NCCCCCC(=O)NCCCC[C@H](NC(=O)[C@@H](NC(=O)[C@@H](NC(=O)[C@@H]1CCCN1C(=O)[C@@H](NC(=O)[C@H](Cc1c[nH]cn1)NC(=O)[C@@H](NC(=O)[C@H](CCc1nn[nH]n1)NC(=O)CC(C)C)[C@@H](C)O)C(c1ccccc1)c1ccccc1)[C@@H](C)CC)[C@@H](C)CC)C(=O)N[C@H](CC(N)=O)Cc1ccccc1
# B3: Isovaleric Acid-[Tet2]-T-[His_1Me]-[Dpa]-P-I-I-[Lys(Ahx_Palm)]-[bhPhe]-NH2 (peptide)
# peptide: Isovaleryl-[Tet2]T[His(τ-Me)][Dip]PIIK([Ahx-Palmitoyl])[β3hF]-NH2
# SMILES: CCCCCCCCCCCCCCCC(=O)NCCCCCC(=O)NCCCC[C@H](NC(=O)[C@@H](NC(=O)[C@@H](NC(=O)[C@@H]1CCCN1C(=O)[C@@H](NC(=O)[C@H](Cc1cn(C)cn1)NC(=O)[C@@H](NC(=O)[C@H](CCc1nn[nH]n1)NC(=O)CC(C)C)[C@@H](C)O)C(c1ccccc1)c1ccccc1)[C@@H](C)CC)[C@@H](C)CC)C(=O)N[C@H](CC(N)=O)Cc1ccccc1
# B4: Isovaleric Acid-E-T-H-[Dpa]-P-A-[Lys(Ahx_Palm)]-NH2 (peptide)
# peptide: Isovaleryl-ETH[Dip]PAK([Ahx-Palmitoyl])-NH2
# SMILES: CCCCCCCCCCCCCCCC(=O)NCCCCCC(=O)NCCCC[C@H](NC(=O)[C@H](C)NC(=O)[C@@H]1CCCN1C(=O)[C@@H](NC(=O)[C@H](Cc1c[nH]cn1)NC(=O)[C@@H](NC(=O)[C@H](CCC(=O)O)NC(=O)CC(C)C)[C@@H](C)O)C(c1ccccc1)c1ccccc1)C(N)=O
# B5: Isovaleric Acid-[Tet1]-T-H-[Dpa]-P-A-I-[Lys(Ahx_Palm)]-NH2 (peptide)
# peptide: Isovaleryl-[Ala(1H-tetrazol-5-yl)]TH[Dip]PAIK([Ahx-Palmitoyl])-NH2
# SMILES: CCCCCCCCCCCCCCCC(=O)NCCCCCC(=O)NCCCC[C@H](NC(=O)[C@@H](NC(=O)[C@H](C)NC(=O)[C@@H]1CCCN1C(=O)[C@@H](NC(=O)[C@H](Cc1c[nH]cn1)NC(=O)[C@@H](NC(=O)[C@H](Cc1nnn[nH]1)NC(=O)CC(C)C)[C@@H](C)O)C(c1ccccc1)c1ccccc1)[C@@H](C)CC)C(N)=O
# B6: Isovaleric Acid-[Tet1]-T-[His_1Me]-[Dpa]-P-A-I-[Lys(Ahx_Palm)]-NH2 (peptide)
# peptide: Isovaleryl-[Ala(1H-tetrazol-5-yl)]T[His(τ-Me)][Dip]PAIK([Ahx-Palmitoyl])-NH2
# SMILES: CCCCCCCCCCCCCCCC(=O)NCCCCCC(=O)NCCCC[C@H](NC(=O)[C@@H](NC(=O)[C@H](C)NC(=O)[C@@H]1CCCN1C(=O)[C@@H](NC(=O)[C@H](Cc1cn(C)cn1)NC(=O)[C@@H](NC(=O)[C@H](Cc1nnn[nH]1)NC(=O)CC(C)C)[C@@H](C)O)C(c1ccccc1)c1ccccc1)[C@@H](C)CC)C(N)=O
# B7: Isovaleric Acid-[Tet1]-T-[His_1Me]-[Dpa]-[ButanoicP]-[Lys(Ahx_Palm)]-NH2 (peptide)
# peptide: Isovaleryl-[Ala(1H-tetrazol-5-yl)]T[His(τ-Me)][Dip][ButanoicP]K([Ahx-Palmitoyl])-NH2
# SMILES: CCCCCCCCCCCCCCCC(=O)NCCCCCC(=O)NCCCC[C@H](NC(=O)CCC[C@@H]1CCCN1C(=O)[C@@H](NC(=O)[C@H](Cc1cn(C)cn1)NC(=O)[C@@H](NC(=O)[C@H](Cc1nnn[nH]1)NC(=O)CC(C)C)[C@@H](C)O)C(c1ccccc1)c1ccccc1)C(N)=O
# B8: Isovaleric Acid-[Tet1]-T-H-[Dpa]-P-I-I-[Lys(Ahx_Palm)]-[bhPhe]-NH2 (peptide)
# peptide: Isovaleryl-[Ala(1H-tetrazol-5-yl)]TH[Dip]PIIK([Ahx-Palmitoyl])[β3hF]-NH2
# SMILES: CCCCCCCCCCCCCCCC(=O)NCCCCCC(=O)NCCCC[C@H](NC(=O)[C@@H](NC(=O)[C@@H](NC(=O)[C@@H]1CCCN1C(=O)[C@@H](NC(=O)[C@H](Cc1c[nH]cn1)NC(=O)[C@@H](NC(=O)[C@H](Cc1nnn[nH]1)NC(=O)CC(C)C)[C@@H](C)O)C(c1ccccc1)c1ccccc1)[C@@H](C)CC)[C@@H](C)CC)C(=O)N[C@H](CC(N)=O)Cc1ccccc1
# Molecular target: T1, human ferroportin (SLC40A1) fused in …
# Test: cell-based or functional assay
row,Binder,FPN EC50 [nM]
1,Isovaleryl-ET[His(τ-Me)][Dip]PIIK([Ahx-Palmitoyl])[β3hF]-NH2 [Isovaleric Acid-E-T-[His_1Me]-[Dpa]-P-I-I-[Lys(Ahx_Palm)]-[bhPhe]-NH2],59.7
2,Isovaleryl-ETH[Dip]PAIK([Ahx-Myristoyl])[β3hF]-NH2 [Isovaleric Acid-E-T-H-[Dpa]-P-A-I-[Lys(Ahx_C14)]-[bhPhe]-NH2],92.4
3,Isovaleryl-ET[His(τ-Me)][Dip]PAIK([Ahx-Palmitoyl])-NH2 [Isovaleric Acid-E-T-[His_1Me]-[Dpa]-P-A-I-[Lys(Ahx_Palm)]-NH2],73
4,B1,63.5
5,Isovaleryl-ETH[Dip]PAIK([Ahx-C10])[β3hF]-NH2 [Isovaleric Acid-E-T-H-[Dpa]-P-A-I-[Lys(Ahx_C10)]-[bhPhe]-NH2],123
6,Isovaleryl-ETH[Dip]PLIK([Ahx-Palmitoyl])[β3hF]-NH2 [Isovaleric Acid-E-T-H-[Dpa]-P-L-I-[Lys(Ahx_Palm)]-[bhPhe]-NH2],372
7,Isovaleryl-ETH[Dip]PAIK([Ahx-C22])[β3hF]-NH2 [Isovaleric Acid-E-T-H-[Dpa]-P-A-I-[Lys(Ahx_C22)]-[bhPhe]-NH2],1330
8,B2,376
9,Isovaleryl-ETH[Dip]PAIK([Ahx-Stearoyl])[β3hF]-NH2 [Isovaleric Acid-E-T-H-[Dpa]-P-A-I-[Lys(Ahx_C18)]-[bhPhe]-NH2],82.2
10,Isovaleryl-ETH[Dip]PAIK([βAla-Palmitoyl])[β3hF]-NH2 [Isovaleric Acid-E-T-H-[Dpa]-P-A-I-[Lys(bAla_Palm)]-[bhPhe]-NH2],62.9
11,Isovaleryl-ETH[Dip]PAIK([AEEA-AEEA-Palmitoyl])[β3hF]-NH2 [Isovaleric Acid-E-T-H-[Dpa]-P-A-I-[Lys(1PEG2_1PEG2_Palm)]-[bhPhe]-NH2],73.7
12,B3,101
13,Isovaleryl-[Ala(1H-tetrazol-5-yl)]T[His(τ-Me)][Dip]PIIK([Ahx-Palmitoyl])[β3hF]-NH2 [Isovaleric Acid-[Tet1]-T-[His_1Me]-[Dpa]-P-I-I-[Lys(Ahx_Palm)]-[bhPhe]-NH2],33.4
14,B4,193
15,Isovaleryl-ETH[Dip]PIIK([Ahx-Palmitoyl])[β3hF]-NH2 [Isovaleric Acid-E-T-H-[Dpa]-P-I-I-[Lys(Ahx_Palm)]-[bhPhe]-NH2],232
16,B5,44.1
17,B6,30.2
18,B7,214
19,B8,86.8
20,Isovaleryl-ETH[Dip]P[hIle′]IK([Ahx-Palmitoyl])[β3hF]-NH2 [Isovaleric Acid-E-T-H-[Dpa]-P-[hIle]-I-[Lys(Ahx_Palm)]-[bhPhe]-NH2],228
